# From US20250051468A1 (INNOLAKE BIOPHARMA HANGZHOU, published 2025)
# Read-outs that look alike come from different tables or passages of the source.
# T1: human OX40 expressed on cells (293T-OX40, Jurkat-OX40) (human, UniProt P43489 29-277)
# T1 sequence (looked up): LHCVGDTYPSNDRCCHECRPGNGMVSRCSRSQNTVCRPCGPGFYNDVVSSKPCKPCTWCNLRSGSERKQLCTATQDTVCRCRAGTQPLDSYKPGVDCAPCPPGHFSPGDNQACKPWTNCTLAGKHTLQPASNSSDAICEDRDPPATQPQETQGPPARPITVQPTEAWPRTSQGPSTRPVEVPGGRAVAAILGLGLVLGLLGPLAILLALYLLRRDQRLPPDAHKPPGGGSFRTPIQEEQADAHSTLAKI
# T2: OX40-ECD-hFc (human, UniProt P43489 29-214)
# T2 construct: extracellular domain; Coated on the ELISA plate; also called OX40-hFc protein; not shown: human Fc (hFc)
# T2 sequence (looked up): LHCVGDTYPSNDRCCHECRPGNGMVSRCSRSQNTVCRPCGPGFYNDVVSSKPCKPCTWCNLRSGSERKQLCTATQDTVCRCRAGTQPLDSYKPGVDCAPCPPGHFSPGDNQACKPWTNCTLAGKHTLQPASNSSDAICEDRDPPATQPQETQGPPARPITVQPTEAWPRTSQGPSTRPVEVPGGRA
# How the values were obtained:
# [1] = biological target: T1, human OX40 expressed on cells …; assay: cell-based or functional assay
# [2] = biological target: T1, human OX40 expressed on cells …; assay: FACS on 293T-OX40 cells
# Procedure: (§1) (3) FACS Screening for Antibodies Binding to OX40-ECD. 50 μL of the hybridoma supernatant tested positive in the ELISA tests was pipetted and mixed with 50 μL of 293T-OX40 cells (1×10⁵ cells/well), and the mixture was added to a 96-well plate with a U-shaped bottom and incubated for 1 hour. After the mixture was centrifuged and washed twice with FACS buffer (PBS+3% FCS), PE-labeled goat anti-mouse secondary antibody (Biolegend, Cat. No.: 405307) diluted at 1:400 was added, the mixture was incubated for 30 minutes, and washed with FACS buffer, and then PE signal of 293T-OX40 cells was detected using a BD C6 flow cytometer.
# (§2) The activity of the purified antibody sample to bind OX40 and block the binding of OX40 to OX40L was tested via ELISA and FACS. Specific methods are described in steps (2), (3) and (4) in Example 1. 6 monoclonal OX40 hybridoma antibodies 1G2, 3G4, 9G7, 177G5, 118A10 and 119H2 were tested. Test results are shown in Table 1 to Table 3 and FIGS. 1 to 3.
# [3] = biological target: T2, OX40-ECD-hFc; assay: ELISA, OX40-ECD-hFc coated on plate
# Procedure: (2) ELISA Screening for Antibodies Binding to OX40-ECD. 96-well ELISA plate (Corning, Cat. No.: 9018) was inoculated with OX40-ECD-hFc, left at 4° C. overnight, and washed 3 times with wash buffer (PBS+0.05% Tween 20), then blocking buffer (PBS+1% BSA (Sigma, Cat. No.: V90093)) was added, and the 96-well ELISA plate was incubated for 1 hour and washed 3 times; hybridoma supernatant was added, the 96-well ELISA plate was incubated for 1 hour and washed 3 times; and 100 μL of goat anti-mouse IgG secondary antibody (Thermo, Cat. No.: 31432) diluted at 1:10000 was added to each well, and the 96-well ELISA plate was incubated at room temperature for 1 hour and washed 3 times. 100 µL of TMB (Biosubstrate Technologies, Cat. No.: ES-002) was added to each well and left for 3 minutes for color development, then a stop solution (2N H₂SO₄) was added at a dose of 100 μL/well to terminate the reaction, and the OD450 signal of each sample was measured with a Tecan Spark microplate reader.
# as §2
# [4] = biological target: T1, human OX40 expressed on cells …; assay: cell-based or functional assay; remark: listed apart in the source
# [5] = biological target: T1, human OX40 expressed on cells …; assay: cell-based or functional assay; remark: listed apart in the source
# [6] = biological target: T1, human OX40 expressed on cells …; assay: FACS on 293T-OX40 cells; remark: listed apart in the source
# Procedure: as §1
# Purified humanized antibody samples were tested for their binding to OX40 using FACS and for their ability to block the OX40L/OX40 signaling pathway using a reporter gene assay. The specific methods are referenced from Example 1. The results are shown in Table 6, Table 7, FIG. 7 and FIG. 8. The effects of the humanized antibodies on the function of primary T cells were tested, including an MLR response test of the inhibitory effect of the OX40 humanized antibody on the proliferation of CD4+ T cells, and a test of the inhibitory effect of the OX40 humanized antibody on the proliferation of CD8+ T cells induced by CEF.
binder,measurement,setting,value
"murine OX40 hybridoma antibody 1G2 (antibody, V domains shown, Purified murine monoclonal hybridoma antibody) VH: EVQLQQSGPDLVKPGASVKMSCKASGYRFTSYVMHWVKQRPGQGLEWIGYINPYNDNTRYNEKFKGKATLTSDKSSSTAYMELSSLTSEDSAVYYCAAYYGDYVYLDYWGQGTTLTVSS VL: DIQMTQTTSSLSASLGDRVTISCRASQDINNYLNWYQQKPDGTVKLLIYYTSRLHSGVPSRFSGSGSGTDYSLIISNLEQEDIATYFCQQGNTLPWTFGGGTKLEIKR","IC50 of reporter gene assay (NF-kB-luciferase, Jurkat-OX40 cells + OX40L)",[1],0.117 µg/mL
same,EC50,[2],0.0805 µg/mL
same,EC50,[3],0.0157 µg/mL
"murine OX40 hybridoma antibody 118A10 (antibody, V domains shown, Purified murine monoclonal hybridoma antibody) VH: EVKLDETGGGLVQPGRPMKLSCVASGFTFSDYWLNWVRQSPEKGLEWVAQIRNKPYHYETFYSESVKGRFTISRDDSKSSVYLQMNDLRGEDTGIYYCTGYFDYWGQGTTLTVSS VL: DIVLTQSPASLTISLGQRATISCRASQSVSTSTYSYIHWYQQKPGQPPRLLIKYASNLESGVPARFSGSGSGTDFTLNIHPVEEEDTATYYCQHSWGIPPTFGGGTKLEIKR","IC50 of reporter gene assay (NF-kB-luciferase, Jurkat-OX40 cells + OX40L)",[1],0.198 µg/mL
same,EC50,[2],0.0735 µg/mL
same,EC50,[3],0.0249 µg/mL
"murine OX40 hybridoma antibody 119H2 (antibody, V domains shown, Purified murine monoclonal hybridoma antibody) VH: EVKLDATGGGLVQPGRPMKLSCVASGFTFSDYWMNWVRQSPEKGLEWVAQIRNKPYNYETFYSDSVKGRFTISRDDSKSSVYLQMNNLRAEDMGIYYCTGYFDYWGQGTTLTVSS VL: DIVLTQSPASLAVSLGQRATISCRASQSVSTSSYSYMHWYQQKPGQPPKLLIKYASNLESGVPARFSGSGSGTDFTLNIHPVEEEDTATYYCQHSWGIPPTFGGGTKLEIKR","IC50 of reporter gene assay (NF-kB-luciferase, Jurkat-OX40 cells + OX40L)",[1],0.179 µg/mL
same,EC50,[2],0.0413 µg/mL
same,EC50,[3],0.023 µg/mL
"murine OX40 hybridoma antibody 9G7 (antibody, V domains shown, Purified murine monoclonal hybridoma antibody) VH: EVKLVESGGGLVQPGGSLKLSCAASGFTFSDYYMYWVRQTPEKRLEWVAYISNGDISTYYPDTVKGRFTISRDNAKNTLYLQMSRLKSEDTAMYYCARDDGYSAWFAYWGQGTLVTVSA VL: not shown","IC50 of reporter gene assay (NF-kB-luciferase, Jurkat-OX40 cells + OX40L)",[1],~0.0361 µg/mL
same,EC50,[2],0.0369 µg/mL
same,EC50,[3],0.0198 µg/mL
"humanized anti-OX40 antibody hu177G5-DE (antibody, V domains shown, Constructed as human IgG1 with constant region Ser239, Ala330 and Ile332 mutated to Asp, Leu and Glu; also called humanized antibody 177G5; combination D') VH: QVQLVESGGGLVKPGGSLRLSCAASGFTFSDFYMYWIRQAPGKGLEWVATISDGGSYTYYPDIVKGRFTISRDNAKNSLNLQMNSLRAEDTAVYYCTTKNGNHIGFAYWGQGTTVTVSS VL: DIQMTQSPSSLSASVGDRVTITCRASENIYSNLAWYQQKPGKAPKLLVYAATNLADGVPSRFSGSGSGTDYTLTISSLQPEDFATYYCQHFWGIPWTFGGGTKVEIK","IC50 of reporter gene assay (NF-kB-luciferase, Jurkat-OX40 cells + OX40L)",[4],0.309 µg/mL
same,"EC50 of ADCC activity (LDH release, Jurkat-OX40 target cells + PBMC)",[5],0.00236 µg/mL
same,EC50,[6],0.096 µg/mL
"humanized anti-OX40 antibody hu3G4-DE (antibody, V domains shown, Constructed as human IgG1 with constant region Ser239, Ala330 and Ile332 mutated to Asp, Leu and Glu; also called humanized antibody 3G4; combination B') VH: QVQLVQSGAEVKKPGASVKVSCKASGYRFTSYVLHWVRQAPGQRLEWIGYVNPFNDNTRYNEKFKARATLTSDKSASTAYMELSSLRSEDTAVYYCSRGLYDYSYVMDYWGQGTLVTVSS VL: DIQMTQSPSSLSASVGDRVTITCQASQDIRNYLNWYQQKPGKAPKLLIYHTSKLHSGVPSRFSGSGSGTDFTFTISSLQPEDIATYYCQQSNTLPYTFGQGTKLEIK","IC50 of reporter gene assay (NF-kB-luciferase, Jurkat-OX40 cells + OX40L)",[4],0.0181 µg/mL
same,"EC50 of ADCC activity (LDH release, Jurkat-OX40 target cells + PBMC)",[5],0.00152 µg/mL
same,EC50,[6],0.0713 µg/mL
"murine OX40 hybridoma antibody 3G4 (antibody, V domains shown, Purified murine monoclonal hybridoma antibody) VH: EVQLQQSGPELVKPGTSVKMSCKASGYRFTSYVLHWVRRKPGQGLEWIGYVNPFNDNTRYNEKFKAKATLTSDKSSSTAYMDLVSLTSEDSAVYYCSRGLYDYSYVMDYWGQGTSVTVSS VL: DIQMTQTTSSLSASLGDGVTITCQASQDIRNYLNWYQQKPDGTIKLLIYHTSKLHSGVPSRFSGGGSGTDFSLTISNLDQEDIATYFCQQSQTLPYTFGGGTKLEIKR","IC50 of reporter gene assay (NF-kB-luciferase, Jurkat-OX40 cells + OX40L)",[1],0.0361 µg/mL
same,EC50,[2],0.0537 µg/mL
same,EC50,[3],0.0163 µg/mL
"murine OX40 hybridoma antibody 177G5 (antibody, V domains shown, Purified murine monoclonal hybridoma antibody) VH: EVQLVESGGGLVKPGGSLKLSCAASGFTFSDFYMYWVRQTPEKRLEWVATISDGGSYTYYPDIVKGRFTISRDNAKNNLNLQMSSLKSDDTAMYYCTTKNGNHIGFAYWGQGTLVTVSA VL: DIQMTQSPASLSVSVGETVTITCRASENIYSNLAWYQQKQGKSPQLLVYAATNLADGVPSRFSGSGSGTQYSLKINSLQSEDFGSYYCQHFWGIPWTFGGGTKLEIKR","IC50 of reporter gene assay (NF-kB-luciferase, Jurkat-OX40 cells + OX40L)",[1],0.253 µg/mL
same,EC50,[2],0.0499 µg/mL
same,EC50,[3],0.0215 µg/mL
"humanized anti-OX40 antibody hu9G7-DE (antibody, V domains shown, Constructed as human IgG1 with constant region Ser239, Ala330 and Ile332 mutated to Asp, Leu and Glu; also called humanized antibody 9G7; combination C') VH: EVQLVESGGGLVQPGGSLRLSCAASGFTFSDYYMYWVRQAPGKGLEWVAYISNGDISTYYPDTVKGRFTISRDNAKNSLYLQMNSLRAEDTAVYYCARDDGYSAWFAYWGQGTTVTVSS VL: DIVMTQSPDSLAVSLGERATINCKSSQSLLNSSNQKNYLAWYQQKPGQPPKLLVYFASTRESGVPDRFSGSGSGTDFTLTISSLQAEDVAVYYCQQHYYTPFTFGQGTKLEIK","IC50 of reporter gene assay (NF-kB-luciferase, Jurkat-OX40 cells + OX40L)",[4],0.0575 µg/mL
same,"EC50 of ADCC activity (LDH release, Jurkat-OX40 target cells + PBMC)",[5],0.00143 µg/mL
same,EC50,[6],0.0623 µg/mL
